Results: article PMC6467989, “RNA recognition motifs of disease-linked RNA-binding proteins contribute to amyloid formation” (Scientific Reports, 2019)

B1: FUS RRM β2 peptide (peptide)
peptide: MINLYT
notes: FUS, human, β2 strand of the RRM, residues 321-326; source: synthetic peptide (synthesized by Mission Biotech)
B2: TDP-43 RRM1 β2a peptide (peptide)
peptide: VLMVQVKK
notes: TDP-43, human, β2 strand of RRM1, residues 130-137; source: synthetic peptide (synthesized by Mission Biotech)
B3: FUS RRM (residues 281–375) (domain or fragment, human, UniProt P35637 281-375, looked up)
chain: NSDNNTIFVQGLGENVTIESVADYFKQIGIIKTNKKTGQPMINLYTDRETGKLKGEATVSFDDPPSAKAAIDWFDGKEFSGNPIKVSFATRRADF
notes: Fused in Sarcoma (FUS), human, RNA recognition motif, residues 281-375; Vector PQE30 or pET28a; also called Fused in Sarcoma RRM; source: E. coli (M15 or BL21-CodonPlus (DE3) RIPL), purified (HisTrap FF, HiTrap Heparin HP, Superdex 75)
B4: TDP-43 RRM1 β2b peptide (peptide)
peptide: GEVLMVQVKK
notes: TDP-43, human, β2 strand of RRM1, residues 128-137; source: synthetic peptide (synthesized by Mission Biotech)

Columns and labels:
[1] = biological target: the molecule itself; test: ATR-FTIR spectroscopy; fresh protein or peptide against freshly prepared fibrils washed and re-suspended in D2O; amide I band 1600–1700 cm^-1; self-assembly into amyloid fibrils of parallel β-sheets
[2] = biological target: the molecule itself; test: X-ray fibre diffraction; fibrils grown by agitation at room temperature for two days (RRMs 50 μM in 10 mM phosphate pH 7.5, 50 mM NaCl; peptides in water), also seen by negative-stain TEM; fibrils centrifuged, washed, dried, diffraction at room temperature; self-assembly into amyloid fibrils
[3] = biological target: the molecule itself; test: Thioflavin T fluorescence; fresh protein or fibrillar solutions mixed with ThT (final 20 μM), 10 mM phosphate buffer, excited at 442 nm, emission 460–600 nm; self-assembly into amyloid-like aggregates

Row | Protein | binding result [2] | other results
1 | B1 |  | binding result [1]: binds
2 | B2 | binds | 
3 | B3 |  | binding result [3]: binds
4 | B4 | binds | 
